Changes are numbered by the printed parent chain. One block for each binder: values may come before it.
What was measured:
[1] = target: T1, human VEGF-A (human, UniProt P15692-4 27-191, limits assumed); assay: SPR (Biacore), antibody captured by anti-human Fc, VEGF-A injected
T1 construct: also called huVEGF-A
Description: (§1) For example, approximately 9000 RU of goat anti-human Fc specific polyclonal antibody (Thermo Fisher Scientific Inc., Rockford, Ill.) diluted in 10 mM sodium acetate (pH 4.5) is directly immobilized across a CM5 research grade biosensor chip using a standard amine coupling kit according to manufacturer's instructions and procedures at 25 μg/ml. Unreacted moieties on the biosensor surface were blocked with ethanolamine. For kinetic analysis, rate equations derived from the 1:1 Langmuir binding model were fitted simultaneously to multiple antigen injections (using global fit analysis) with the use of Scrubber 2 (BioLogic Software), Biacore Biaevaluation 4.0.1 software or Biacore T100 Evaluation software. Purified antibodies or DVD-Ig molecules were diluted in running buffer for capture across goat anti-human Fc reaction surfaces. Antibodies or DVD-Ig molecules to be captured as a ligand (1 μg/ml) were injected over reaction matrices at a flow rate of 10 μl/minute. During the assay, all measurements were referenced against the capture surface alone (i.e., with no captured antibody or DVD-Ig molecule). […] The equilibrium dissociation constant KD (M) of the reaction between antibodies and the target antigen was then calculated from the kinetic rate constants by the following formula: KD=Koff/Kₒₙ. Binding was recorded as a function of time and kinetic rate constants were calculated.

[2] = target: T2, Human PDGF-BB (human, UniProt P01127 82-190); assay: SPR (Biacore), antibody captured via anti-human Fc, antigen in solution
T2 construct: Recombinant human PDGF-BB, a homodimer of two B chains; also called hPDGF-BB; huPDGF-BB
Description: as §1

T2 sequence (P01127 82-190 limits assumed): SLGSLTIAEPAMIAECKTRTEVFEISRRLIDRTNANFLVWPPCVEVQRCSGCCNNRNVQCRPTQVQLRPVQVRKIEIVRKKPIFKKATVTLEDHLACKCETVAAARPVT
T1 sequence (P15692 other isoform, or with tags, fused parts or gaps limits assumed): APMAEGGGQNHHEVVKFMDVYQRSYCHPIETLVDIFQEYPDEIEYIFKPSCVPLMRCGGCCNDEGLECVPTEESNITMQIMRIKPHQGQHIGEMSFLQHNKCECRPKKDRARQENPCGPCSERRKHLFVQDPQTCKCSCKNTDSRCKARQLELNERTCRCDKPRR

B1: hBEW-1B10.1 (antibody, V domains shown)
VH: EVQLVESGGGLVQPGGSLRLSCAASGFSFSKYDMAWFRQAPGKGLEWVASITTSGVGTYYRDSVKGRFTVSRDNAKSTLYLQMNSLRAEDTAVYYCARGYGAMDAWGQGTTVTVSS
VL: DIQMTQSPSSLSASVGDRVTITCKASQDIDDYLSWYQQKPGKSPKLVIYAATRLADGVPSRFSGSGSGTDYTLTISSLQPEDFATYYCLQSSSTPWTFGGGTKVEIK
notes: Humanized IgG made from pHybE vectors in HEK293 cells
Kd [1]: 18 pM
kon [1]: 7.6e+06 M⁻¹ s⁻¹

B5: hBEW-9E10.1 (antibody, V domains shown)
VH: EIQLVQSGSELKKPGASVKVSCKASGYTFTNYGMYWVKQAPGQGLEYMGWIDTETGRPTYADDFKGRFVFSLDTSVSTAYLQISSLKAEDTAVYFCARWSGDTTGIRGPWFAYWGQGTLVTVSS
VL: DIRMTQSPSSLSASVGDRVTIECLASEDIYSDLAWYQQKPGKSPKLLIYNANGLQNGVPSRFSGSGSGTDYSLTISSLQPEDVATYFCQQYNYFPGTFGQGTKLEIK
notes: Humanized IgG made from pHybE vectors in HEK293 cells; also called AB642 (9E10.1)
Kd [1]: 2.1 pM
kon [1]: 1.2e+07 M⁻¹ s⁻¹

B6: hBEW-9E10.2 (antibody, V domains shown)
VH: EIQLVQSGAEVKKPGSSVKVSCKASGYTFTNYGMYWVKQAPGQGLEYMGWIDTETGRPTYADDFKGRFTFTADKSTSTAYMELSSLRSEDTAVYFCARWSGDTTGIRGPWFAYWGQGTLVTVSS
VL: B5 VL
notes: as for B1
Kd [1]: 12 pM
kon [1]: 1.6e+07 M⁻¹ s⁻¹

B11: hBDI-9E8.1 (antibody, V domains shown)
VH: EVTLRESGPALVKPTQTLTLTCTFSGFSLSTYGMGVGWIRQPPGKALEWLANIWWDDDKYYNPSLKNRLTISKDTSKNQVVLTMTNMDPVDTATYYCARIESIGTTYSFDYWGQGTMVTVSS
VL: NFMLTQPHSVSESPGKTVTISCERSSGDIGDSYVSWYQQRPGSSPTTVIYADDQRPSGVPDRFSGSIDSSSNSASLTISGLKTEDEADYYCQSYDINIDIVFGGGTKLTVL
notes: Humanized IgG
Kd [2]: ≤ 560 pM
kon [2]: ≥ 1e+07 M⁻¹ s⁻¹

B12: hBDI-5H1.1 (antibody, V domains shown)
VH: EVTLRESGPALVKPTQTLTLTCTFSGFSLSTFGMGVGWIRQPPGKALEWLANIWWDDDKYYNPSLKNRLTISKDTSKNQVVLTMTNMDPVDTATYYCARISTGISSYYVMDAWGQGTTVTVSS
VL: B11 VL with S32T, A51G, D52N, I96S, N97D
notes: Humanized IgG
Kd [2]: ≤ 410 pM
kon [2]: ≥ 1e+07 M⁻¹ s⁻¹

B13: hBDI-9E8.10 (antibody, V domains shown)
VH: B11 VH with V80A, M84I, M117T
VL: DFQLTQSPSSLSASVGDRVTITCERSSGDIGDSYVSWYQQKPGKAPKNVIYADDQRPSGVPSRFSGSGSGNSASLTISSLQPEDFATYYCQSYDINIDIVFGQGTKVEIK
notes: Humanized IgG
Kd [2]: ≤ 180 pM
kon [2]: ≥ 1e+07 M⁻¹ s⁻¹

B14: hBDI-9E8.3 (antibody, V domains shown)
VH: B11 VH
VL: EIVLTQSPGTLSLSPGERATLSCERSSGDIGDSYVSWYQQKPGQAPRLLIYADDQRPSGIPDRFSGSGSGTDFTLTISRLEPEDFAVYYCQSYDINIDIVFGGGTKVEIK
notes: Humanized IgG
Kd [2]: ≤ 65 pM
kon [2]: ≥ 1e+07 M⁻¹ s⁻¹

B15: hBDI-9E8.9 (antibody, V domains shown)
VH: B11 VH with V80A, M84I, M117T
VL: DFVLTQSPDSLAVSLGERATINCERSSGDIGDSYVSWYQQKPGQPPKNVIYADDQRPSGVPDRFSGSGSGNSASLTISSLQAEDVAVYFCQSYDINIDIVFGGGTKVEIK
notes: Humanized IgG
Kd [2]: ≤ 150 pM
kon [2]: ≥ 1e+07 M⁻¹ s⁻¹

B16: hBDI-9E8.6 (antibody, V domains shown)
VH: B11 VH with A46G, V80A, M84I
VL: B11 VL with S44P, T47N, Y90F
notes: Humanized IgG
Kd [2]: ≤ 210 pM
kon [2]: ≥ 1e+07 M⁻¹ s⁻¹

B17: hBDI-9E8.5 (antibody, V domains shown)
VH: B11 VH with A46G, V80A, M84I
VL: B11 VL
notes: Humanized IgG
Kd [2]: ≤ 210 pM
kon [2]: ≥ 1e+07 M⁻¹ s⁻¹

B18: hBDI-9E8.4 (antibody, V domains shown)
VH: B11 VH
VL: B14 VL with I2F, L49V
notes: Humanized IgG
Kd [2]: ≤ 21 pM
kon [2]: > 1e+07 M⁻¹ s⁻¹

B19: hBDI-9E8.2 (antibody, V domains shown)
VH: B11 VH
VL: B11 VL with S44P, T47N, Y90F
notes: Humanized IgG
Kd [2]: ≤ 510 pM
kon [2]: ≥ 1e+07 M⁻¹ s⁻¹

B20: hBDI-5H1.5 (antibody, V domains shown)
VH: B12 VH with R5K, V80A, M84I
VL: B11 VL with S32T, A51G, D52N, I96S, N97D
notes: Humanized IgG
Kd [2]: ≤ 170 pM
kon [2]: ≥ 1e+07 M⁻¹ s⁻¹

B21: hBDI-5H1.6 (antibody, V domains shown)
VH: B12 VH with R5K, V80A, M84I
VL: B11 VL with S32T, S44P, T47N, A51G, D52N, Y90F, I96S, N97D
notes: Humanized IgG
Kd [2]: ≤ 82 pM
kon [2]: ≥ 1e+07 M⁻¹ s⁻¹

B22: hBDI-9E8.7 (antibody, V domains shown)
VH: B11 VH with A46G, V80A, M84I
VL: B14 VL
notes: Humanized IgG
Kd [2]: ≤ 45 pM
kon [2]: ≥ 1e+07 M⁻¹ s⁻¹

B23: hBDI-5H1.2 (antibody, V domains shown)
VH: B12 VH
VL: B11 VL with S32T, S44P, T47N, A51G, D52N, Y90F, I96S, N97D
notes: Humanized IgG
Kd [2]: ≤ 190 pM
kon [2]: ≥ 1e+07 M⁻¹ s⁻¹

B24: hBDI-9E8.11 (antibody, V domains shown)
VH: EVQLVESGGGLVQPGGSLRLSCAFSGFSLSTYGMGVGWIRQAPGKGLEWLANIWWDDDKYYNPSLKNRLTISKDTSKNQAYLQINSLRAEDTAVYYCARIESIGTTYSFDYWGQGTLVTVSS
VL: B15 VL
notes: Humanized IgG
Kd [2]: ≤ 74 pM
kon [2]: ≥ 1e+07 M⁻¹ s⁻¹

Second part, the binder after the results:

Kd [1]: 20 pM
kon [1]: 7.5e+06 M⁻¹ s⁻¹
B2: hBEW-1B10.2 (antibody, V domains shown)
VH: B1 VH with S77N, T78S
VL: B1 VL
notes: as for B1

Kd [1]: 6 pM
kon [1]: 1.1e+07 M⁻¹ s⁻¹
B3: hBEW-5C3.1 (antibody, V domains shown)
VH: EIQLVQSGSELKKPGASVKVSCKASGYTFTNYGVYWVKQAPGQGLEYMGWINTETGKPTYADDFKGRFVFSLDTSVSTAYLQISSLKAEDTAVYYCARARQLDWFVYWGQGTLVTVSS
VL: DTVLTQSPATLSLSPGERATLSCRARESLTTSLSWFQQKPGQQPRLLIYGASKLESGVPARFSGSGSGTDFTLTISSLEPEDFAVYFCQQSWYDPPTFGGGTKVEIK
notes: as for B1

Kd [1]: 8.6 pM
kon [1]: 9.9e+06 M⁻¹ s⁻¹
B4: hBEW-5C3.4 (antibody, V domains shown)
VH: B3 VH
VL: DTQLTQSPSSLSASVGDRVTISCRARESLTTSLSWFQQKPGKQPKLLIYGASKLESGVPSRFSGSGSGTDFTLTISSLQPEDFATYFCQQSWYDPPTFGGGTKVEIK
notes: as for B1

Kd [1]: 15 pM
kon [1]: 1.6e+07 M⁻¹ s⁻¹
B7: hBEW-9E10.5 (antibody, V domains shown)
VH: B6 VH
VL: B5 VL with E22T, S72T
notes: as for B1

Kd [1]: 3.2 pM
kon [1]: 1.3e+07 M⁻¹ s⁻¹
B8: hBEW-9E10.3 (antibody, V domains shown)
VH: B6 VH with I2V, K38R, Y47W, F95Y
VL: B5 VL
notes: as for B1

Kd [1]: 2.6 pM
kon [1]: 1.5e+07 M⁻¹ s⁻¹
B9: hBEW-9E10.6 (antibody, V domains shown)
VH: B6 VH with I2V, K38R, Y47W, F95Y
VL: B5 VL with E22T, S72T
notes: as for B1

Kd [1]: 2.1 pM
kon [1]: 1.2e+07 M⁻¹ s⁻¹
B10: hBEW-9E10.4 (antibody, V domains shown)
VH: B5 VH
VL: B5 VL with E22T, S72T
notes: as for B1

Kd [2]: ≤ 210 pM
kon [2]: ≥ 1e+07 M⁻¹ s⁻¹
B25: hBDI-9E8.12 (antibody, V domains shown)
VH: B24 VH
VL: B13 VL
notes: Humanized IgG

Kd [1]: 8.5 pM
kon [1]: 1.2e+07 M⁻¹ s⁻¹
B26: hBEW-5C3.5 (antibody, V domains shown)
VH: EIQLVQSGAEVKKPGSSVKVSCKASGYTFTNYGVYWVKQAPGQGLEYMGWINTETGKPTYADDFKGRFTFTLDKSTSTAYMELSSLRSEDTAVYFCARARQLDWFVYWGQGTLVTVSS
VL: B4 VL
notes: as for B1

Kd [1]: 1.7 pM
kon [1]: 7.9e+06 M⁻¹ s⁻¹
B27: hBEW-9A8.17 (antibody, V domains shown)
VH: EIQLVQSGSELKKPGASVKVSCKASGYTFTNYGMYWVKQAPGQGLEYMGWINTETGKPIYADDFKGRFVFSLDTSVSTAYLQISSLKAEDTAVYYCARVDYDGSFWFAYWGQGTLVTVSS
VL: ETVLTQSPATLSLSPGERATLSCRASESVSTVIHWYQQKPGQQPRLLIHGASNLESGVPARFSGSGSGTDFTLTISSLEPEDFAVYFCQQHWNDPPTFGQGTKLEIK
notes: as for B1

Kd [1]: 6.7 pM
kon [1]: 5.8e+06 M⁻¹ s⁻¹
B28: hBEW-9A8.21 (antibody, V domains shown)
VH: EIQLVQSGAEVKKPGASVKVSCKASGYTFTNYGMYWVRQAPGQGLEWMGWINTETGKPIYADDFKGRFTFTLDTSTSTAYMELRSLRSDDTAVYYCARVDYDGSFWFAYWGQGTLVTVSS
VL: B27 VL
notes: as for B1

From patent US20170015742A1 (published 2017)
